Assay results reported in patent US20160083466A1 (Regeneron, published 2016).

T1: mouse IL-25 expressed with a C-terminal myc-myc-hexahistidine tag (mouse)
T1 construct: also called Mouse IL-25-MMH; mIL-25-MMH
T1 chain: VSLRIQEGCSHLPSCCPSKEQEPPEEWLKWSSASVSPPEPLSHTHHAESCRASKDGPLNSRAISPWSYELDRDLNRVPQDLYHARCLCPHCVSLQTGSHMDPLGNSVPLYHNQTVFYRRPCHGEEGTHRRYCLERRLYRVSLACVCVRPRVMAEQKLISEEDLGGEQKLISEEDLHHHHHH

T2: rat IL-25 expressed with a C-terminal myc-myc-hexahistidine tag (rat)
T2 construct: also called Rat IL-25-MMH
T2 chain: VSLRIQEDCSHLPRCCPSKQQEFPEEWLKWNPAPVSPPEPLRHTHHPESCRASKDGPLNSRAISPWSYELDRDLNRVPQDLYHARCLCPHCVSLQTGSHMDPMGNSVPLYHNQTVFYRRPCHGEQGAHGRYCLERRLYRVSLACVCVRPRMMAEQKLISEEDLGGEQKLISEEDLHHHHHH

T3: human IL-25 expressed with a C-terminal myc-myc-hexahistidine tag (human)
T3 construct: also called hIL-25-MMH; Human IL-25-MMH
T3 chain: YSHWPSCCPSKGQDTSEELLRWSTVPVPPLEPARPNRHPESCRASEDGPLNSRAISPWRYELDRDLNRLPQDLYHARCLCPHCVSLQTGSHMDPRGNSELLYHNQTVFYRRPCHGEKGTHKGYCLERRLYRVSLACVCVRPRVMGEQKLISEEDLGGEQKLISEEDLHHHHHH

T4: monkey IL-25 expressed with a C-terminal myc-myc-hexahistidine tag (M. fascicularis (cynomolgus monkey))
T4 construct: also called Monkey IL-25-MMH; MfIL-25-MMH
T4 chain: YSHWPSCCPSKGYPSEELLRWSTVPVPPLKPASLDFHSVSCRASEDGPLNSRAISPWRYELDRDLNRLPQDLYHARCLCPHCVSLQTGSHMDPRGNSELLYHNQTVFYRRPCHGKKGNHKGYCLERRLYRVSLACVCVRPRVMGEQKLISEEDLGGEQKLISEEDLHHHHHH

B1: H4H10897P (antibody, human IgG4, V domains shown)
VH: QVQLQESGPGLVKPSETLSLTCTVSGGSISDYYWSWIRQPPGKGLEWIGHIYYSGSTNHNPSLKSRVAISVDTSKNQFSLRLYSVTAADTAVYYCARDGYSSSSGFYYFGMDVWGQGTTVTVSS
VL: DIQLTQSPSFLSASVGDRVTITCWASQDINSYLAWYQQKPGKAPKLLIFAASTLQGGVPSRFSGSGSGTEFTLTISSLQPEDFATYYCQHLSSFPPTFGQGTRLEIK
notes: H4H prefix = human IgG4 Fc
B2: H4H10900P (antibody, human IgG4, V domains shown)
VH: QVQLQESGPGLVRPSETLSLICTVSGGSINSYYWSWIRQPPGKGLEWIGYIYYSGSTNYNPSLKSRVTISGDTSKNQFSLKLSSVTAADTAVYYCARGVIWNYELREFDYWGQGTLVTVSS
VL: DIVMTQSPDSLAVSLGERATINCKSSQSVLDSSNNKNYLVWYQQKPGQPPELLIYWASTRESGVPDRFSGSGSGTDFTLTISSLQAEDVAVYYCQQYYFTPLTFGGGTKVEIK
notes: H4H prefix = human IgG4 Fc
B3: H4H10905P (antibody, human IgG4, V domains shown)
VH: QVQLVQSGAEVKKPGTSVKVSCKASGYTFTNYGISWVRQAPGQGLEWLGWISAYNDNTDYAQKLQARVTMTTDTFTSTAYMDLRSLRSDDTAVYYCARVPITGTTSSFDFWGQGTLVTVSS
VL: DIQMTQSPSSLSASVGDRVTISCRASQTIYSYLNWFQQKPGKAPKLLIYDASSLQSGVPSRFSGSGSGTHFTLTISSLQPEDFATYFCQQTYSTPLTFGGGTKVEIK
notes: H4H prefix = human IgG4 Fc

Target: T1, mouse IL-25 expressed with a C-terminal …
Assay: SPR Biacore, antibody captured, 37C;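 on 100 nM Monkey IL-25-MMH Bound (RU): biacore 4000 surface plasmon resonance biosensor measuring binding of IL-25-MMH to purified anti-IL-25 antibodies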;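 on 100 nM Mouse IL-25-MMH Bound (RU): Real-time sensorgrams of IL-25-MMH binding to purified anti-IL-25 antibodies, rate constants obtained by fitting a 1:1 binding model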
Experimental: (§1) Equilibrium dissociation constants (KD values) for IL-25 binding to purified anti-IL-25 antibodies were determined using a real-time surface plasmon resonance biosensor assay on a Biacore 4000 instrument (GE Healthcare). […] All the IL-25 reagents were expressed with a C-terminal myc-myc-hexahistidine tag (referred to herein as “IL-25-MMH”). […] Kinetic association (kₐ) and dissociation (kd) rate constants were determined by fitting the real-time sensorgrams to a 1:1 binding model using Scrubber 2.0c curve fitting software.

Binder | 100 nM Mouse IL-25-MMH Bound (RU) | Kd [nM] | koff [s⁻¹] | kon [M⁻¹ s⁻¹] | t½ [min]
B1 | 17 | 36.2 | 0.00641 | 177000 | 1.8
B2 | 2 |  |  |  | 
B3 | 47 | 0.441 | 0.000178 | 403000 | 65

Target: T2, rat IL-25 expressed with a C-terminal …
Assay: SPR Biacore, antibody captured, 37C;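 on 100 nM Monkey IL-25-MMH Bound (RU): biacore 4000 surface plasmon resonance biosensor measuring binding of IL-25-MMH to purified anti-IL-25 antibodies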;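 on 100 nM Mouse IL-25-MMH Bound (RU): Real-time sensorgrams of IL-25-MMH binding to purified anti-IL-25 antibodies, rate constants obtained by fitting a 1:1 binding model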
Experimental: as §1

Binder | 100 nM Rat IL-25-MMH Bound (RU) | Kd [nM] | koff [s⁻¹] | kon [M⁻¹ s⁻¹] | t½ [min]
B1 | 22 | 24.6 | 0.00601 | 245000 | 1.9
B2 | 2 |  |  |  | 
B3 | 49 | 0.377 | 0.000181 | 481000 | 64

Target: T3, human IL-25 expressed with a C-terminal …
Assay: BLI Octet, hIL-25-MMH captured on anti-Penta-His sensor, 25C
Experimental: Binding competition between anti-IL-25 monoclonal antibodies was determined using a real time, label-free bio-layer interferometry assay on an Octet QK384 biosensor (Pall ForteBio Corp.).
The biosensors were washed in HBST kinetics buffer in between every step of the experiment. The real-time binding response was monitored during the course of the experiment and the binding response at the end of every step was recorded.

Binder | 50 ug/mL mAb-1 Binding (nm)
B1 | 1.12
B2 | 0.68
B3 | 1.59

Target: T4, monkey IL-25 expressed with a …
Assay: SPR Biacore, antibody captured, 37C;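 on 100 nM Monkey IL-25-MMH Bound (RU): biacore 4000 surface plasmon resonance biosensor measuring binding of IL-25-MMH to purified anti-IL-25 antibodies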;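 on 100 nM Mouse IL-25-MMH Bound (RU): Real-time sensorgrams of IL-25-MMH binding to purified anti-IL-25 antibodies, rate constants obtained by fitting a 1:1 binding model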
Experimental: as §1

Binder | 100 nM Monkey IL-25-MMH Bound (RU) | Kd [nM] | koff [s⁻¹] | kon [M⁻¹ s⁻¹] | t½ [min]
B1 | 49 | 0.189 | 0.000231 | 1.22e+06 | 50
B2 | 50 | 0.0244 | 7.49e-05 | 3.07e+06 | 154
B3 | 59 | 0.135 | 9.01e-05 | 668000 | 128

Target: T3, human IL-25 expressed with a C-terminal …
Assay: competition ELISA, 2 nM hIL-25-MMH binding to coated hIL-17RB-hFc; (*) below theoretical bottom of the assay
Experimental: (§2) Data analysis was performed using a sigmoidal dose-response model within Prism™ software (GraphPad). […] The absorbance values of the wells containing the highest concentration for each antibody were used to determine the percent maximum blockade.

Binder | IC50 [nM]
B1 | 0.32
B2 | 0.2
B3 | 0.53

Target: T4, monkey IL-25 expressed with a …
Assay: cell-based or functional assay

Binder | IC50, luciferase reporter cells, 12 pM MfIL-25-MMH [M]
B1 | 4e-10
B2 | 2.2e-11
B3 | 2.1e-10

Target: T3, human IL-25 expressed with a C-terminal …
Assay: cell-based or functional assay

Binder | IC50, luciferase reporter cells, 5 pM hIL-25-MMH [M]
B1 | 4.6e-10
B2 | 3.1e-11
B3 | 5.1e-10

Target: T1, mouse IL-25 expressed with a C-terminal …
Assay: cell-based or functional assay

Binder | IC50, luciferase reporter cells, 10 pM mIL-25-MMH [M]
B1 | 1.5e-08
B3 | 6.8e-10

Target: T2, rat IL-25 expressed with a C-terminal …
Assay: SPR Biacore, antibody captured, 25C;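 on 100 nM Rat IL-25-MMH Bound (RU): purified anti-IL-25 antibodies were tested by real-time surface plasmon resonance on a Biacore 4000, with rate constants obtained from sensorgram fits to a 1:1 binding model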

Binder | 100 nM Rat IL-25-MMH Bound (RU) | Kd [nM] | koff [s⁻¹] | kon [M⁻¹ s⁻¹] | t½ [min] | binding result
B1 | 23 | 2.42 | 0.000807 | 333000 | 14 | 
B2 | 0 |  |  |  |  | no binding (tested: 100 nM)
B3 | 45 | 0.81 | 0.000135 | 167000 | 85 | 

Target: T3, human IL-25 expressed with a C-terminal …
Assay: cell-based or functional assay
Remark: another data set of the same source

Binder | IC50 values of antibodies for blocking IL-5 release from Donor #727058-059 [pM] | IC50 values of antibodies for blocking IL-5 release from Donor #727060 [pM]
B2 | 39.2 | 578

Target: T3, human IL-25 expressed with a C-terminal …
Assay: competition ELISA, 2 nM hIL-25-MMH binding to coated hIL-17RB-hFc
Experimental: as §2

Binder | % Maximum blocking of 200 nM antibody [%]
B1 | 94
B2 | 90
B3 | 86

Target: T1, mouse IL-25 expressed with a C-terminal …
Assay: SPR Biacore, antibody captured, 25C;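 on 100 nM Rat IL-25-MMH Bound (RU): purified anti-IL-25 antibodies were tested by real-time surface plasmon resonance on a Biacore 4000, with rate constants obtained from sensorgram fits to a 1:1 binding model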
Experimental: as §1

Binder | 100 nM Mouse IL-25-MMH Bound (RU) | Kd [nM] | koff [s⁻¹] | kon [M⁻¹ s⁻¹] | t½ [min] | binding result
B1 | 20 | 7.05 | 0.00104 | 148000 | 11 | 
B2 | 0 |  |  |  |  | no binding (tested: 100 nM)
B3 | 43 | 1.17 | 0.000145 | 124000 | 80 | 
